We go through one molecule from patent US12221483 (CHINA MEDICAL UNIVERSITY HOSPITAL, dated 2025).

The target in this experiment is T1, recombinant CD3E protein (UniProt P07766 23-126, limits assumed).
T1 construct: also called CD3ε; CD3 epsilon
Nature of the experiment: SPR (BIAcore T200); fusion protein on exosomes (1x10^11) coated on CM5 chip, recombinant CD3E protein as analyte at 700-21.9 nM; fusion protein (1×10^11) coated on CM5 chip; recombinant CD3E as analyte. A general note: SPR reads the build-up and loss of mass on a sensor chip optically.

T1 sequence (P07766 23-126 limits assumed): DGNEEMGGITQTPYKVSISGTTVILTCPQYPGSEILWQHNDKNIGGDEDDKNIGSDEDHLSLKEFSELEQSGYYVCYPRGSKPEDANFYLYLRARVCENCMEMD

B1: fusion protein comprising anti-CD3 single domain antibody and exosomal protein CD63 (other)
chain: MAVEGGMKCVKFLLYVLLLAFCACAVGLIAVGVGAQLVLSQTIIQGATPGSLLPVVIIAVGVFLFLVAFVGCCGACKENYCLMITFAIFLSLIMLVEVAAAIAGYVFRDKVMSEFNNNFRQQMENYPKNNHTASAHVQLVESGGGSVQAGGSLRLSCTVSGVIFKNEYMGWFRQAPGKEREGVAAASPGGTITYYGDSVKGRFTISRDNAKNTVYLQMNRLKPEDTAMYYCALDPSTTSWSIIRHGPSLWRYSGRGTQVTVSSGSSILDRMQADFKCCGAANYTDWEKIPSMSKNRVPDSCCINVTVGCGINFNEKAIHKEGCVEKIGGWLRKNVLVVAAAALGIAFVEVLGIVFACCLVKSIRSGYEVM
notes: in the SPR assay the exosomes carrying the fusion protein (1x10^11) were coated on a CM5 chip; also called anti-CD3 single domain antibody-CD63 chimeric protein; CD3ε Nb-Exo
Take B1: the equilibrium dissociation constant (Kd) (as a rule, a measure of binding affinity in units of concentration) came to 2.1 nM.
